Assay results: US20060166868A1, “Vegf peptides and their use” (priority 2002, published 2006)
No end group written: not given here.

What was measured:
HUVECs = conditions: Soker et al, J. Biol. Chem. 272 (1997); cited from earlier work
[1] = tested on: human umbilical vein endothelial cells (HUVEC) which express NP-1, KDR and Flt-1; assay: radiolabelled VEGF binding to HUVEC; conditions: FIG. 2
Neuropilin-1 (NP-1) = target: T1, Neuropilin-1 (NP-1) (Homo sapiens, UniProt O14786); assay: 125I-VEGF165 binding to PAE/NP1 cells
T1 construct: expressed in transfected cells; host or cells: porcine aortic endothelial cells (PAE/NP1)
T1 sequence (O14786 22-923, species assumed): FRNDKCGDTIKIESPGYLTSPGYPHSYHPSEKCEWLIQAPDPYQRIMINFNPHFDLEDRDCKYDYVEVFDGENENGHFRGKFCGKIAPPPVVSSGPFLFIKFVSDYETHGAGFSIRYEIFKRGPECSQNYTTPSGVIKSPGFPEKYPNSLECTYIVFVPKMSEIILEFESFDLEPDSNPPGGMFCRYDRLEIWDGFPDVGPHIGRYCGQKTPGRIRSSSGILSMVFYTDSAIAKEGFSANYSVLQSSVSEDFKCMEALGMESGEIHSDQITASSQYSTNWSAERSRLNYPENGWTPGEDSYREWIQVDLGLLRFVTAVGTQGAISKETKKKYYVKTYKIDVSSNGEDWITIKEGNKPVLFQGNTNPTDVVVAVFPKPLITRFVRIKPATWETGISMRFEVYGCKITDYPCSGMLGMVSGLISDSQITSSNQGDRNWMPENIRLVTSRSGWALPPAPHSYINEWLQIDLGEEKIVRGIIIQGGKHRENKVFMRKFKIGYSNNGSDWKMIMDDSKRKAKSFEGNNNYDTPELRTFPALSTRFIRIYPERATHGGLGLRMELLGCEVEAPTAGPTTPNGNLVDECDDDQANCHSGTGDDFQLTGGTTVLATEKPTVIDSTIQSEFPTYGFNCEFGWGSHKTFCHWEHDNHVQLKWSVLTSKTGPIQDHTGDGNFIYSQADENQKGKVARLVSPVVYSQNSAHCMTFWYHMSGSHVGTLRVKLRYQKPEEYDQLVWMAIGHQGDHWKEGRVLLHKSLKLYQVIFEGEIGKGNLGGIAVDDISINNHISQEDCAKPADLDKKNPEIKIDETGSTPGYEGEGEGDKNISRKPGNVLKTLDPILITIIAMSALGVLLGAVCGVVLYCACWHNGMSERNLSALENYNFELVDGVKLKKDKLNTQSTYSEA

Flt-1 = target: T2, Flt-1 (Homo sapiens, UniProt P17948); assay: 125I-VEGF165 binding to PAE/Flt-1 cells; conditions: FIG. 2; cells expressing only Flt-1
T2 construct: expressed in transfected cells; host or cells: porcine aortic endothelial cells (PAE/Flt-1)
T2 sequence (P17948 27-1338, species assumed): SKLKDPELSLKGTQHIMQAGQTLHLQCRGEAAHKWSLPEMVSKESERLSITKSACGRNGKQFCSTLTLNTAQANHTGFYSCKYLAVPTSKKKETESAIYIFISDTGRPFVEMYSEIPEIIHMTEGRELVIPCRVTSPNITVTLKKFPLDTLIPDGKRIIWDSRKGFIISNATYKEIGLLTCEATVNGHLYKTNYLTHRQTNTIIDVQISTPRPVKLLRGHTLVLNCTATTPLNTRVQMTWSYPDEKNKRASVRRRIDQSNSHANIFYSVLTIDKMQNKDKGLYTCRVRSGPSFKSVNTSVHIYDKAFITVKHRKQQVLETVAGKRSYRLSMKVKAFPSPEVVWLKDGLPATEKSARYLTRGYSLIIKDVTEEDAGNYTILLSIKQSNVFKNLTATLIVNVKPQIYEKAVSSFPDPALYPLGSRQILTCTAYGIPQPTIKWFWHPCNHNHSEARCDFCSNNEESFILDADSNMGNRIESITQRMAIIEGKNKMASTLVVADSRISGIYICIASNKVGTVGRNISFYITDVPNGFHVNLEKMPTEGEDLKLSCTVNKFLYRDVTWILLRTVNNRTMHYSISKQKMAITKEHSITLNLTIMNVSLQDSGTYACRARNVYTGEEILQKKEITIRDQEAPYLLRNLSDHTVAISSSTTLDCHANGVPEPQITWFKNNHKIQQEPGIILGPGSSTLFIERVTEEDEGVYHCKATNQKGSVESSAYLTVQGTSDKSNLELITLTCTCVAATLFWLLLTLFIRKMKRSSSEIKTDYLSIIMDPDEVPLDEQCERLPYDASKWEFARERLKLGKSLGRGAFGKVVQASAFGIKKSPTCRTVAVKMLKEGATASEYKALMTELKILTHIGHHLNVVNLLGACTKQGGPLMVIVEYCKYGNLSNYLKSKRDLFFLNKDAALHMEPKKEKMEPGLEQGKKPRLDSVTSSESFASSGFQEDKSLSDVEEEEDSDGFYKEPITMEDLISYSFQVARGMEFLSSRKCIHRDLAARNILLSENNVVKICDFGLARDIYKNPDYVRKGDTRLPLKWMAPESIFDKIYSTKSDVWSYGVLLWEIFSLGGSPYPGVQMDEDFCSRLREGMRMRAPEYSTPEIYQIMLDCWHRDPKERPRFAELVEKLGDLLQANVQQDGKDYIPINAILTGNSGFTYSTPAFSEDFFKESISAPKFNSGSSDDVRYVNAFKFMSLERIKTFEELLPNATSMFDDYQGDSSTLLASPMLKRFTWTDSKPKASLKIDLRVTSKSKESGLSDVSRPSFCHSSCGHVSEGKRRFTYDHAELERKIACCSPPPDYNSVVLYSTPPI

NP-1 = target: T3, NP-1 (Homo sapiens, UniProt O14786); assay: radiolabelled VEGF binding to MDA-MB-231 cells; conditions: FIG. 4; cells naturally express only NP-1 receptors for VEGF
T3 construct: the breast carcinoma cell line MDA-MB-231, that naturally expresses only NP-1 receptors for VEGF; endogenous in cells; host or cells: MDA-MB-231
T3 sequence (O14786 22-923): as the sequence (O14786 22-923, species assumed) above

KDR [2] = assay: KDR Phosphorylation Assay; assay type: cell-based; conditions: FIG. 3; peptide at 10, 30 and 100 mM for 15 minutes, then 25 ng/ml VEGF for 10 minutes; immunoblot
Description: Cells were pretreated with peptide at 10, 30 and 100 mM for 15 minutes followed by treatment with 25 ng/ml VEGF for 10 minutes, and cells were immediately extracted by lysis buffer (64 mM Tris-HCl, pH 6.8, 0.2 mM Na3VO4, 2% SDS, 10% glycerol, 0.1 mM AEBSF, […] leupeptin). KDR phosphorylation was determined by immunoblotting cell extracts with antibodies which recognise either KDR phosphorylated at Tyrosines 1054 and 1059 (purchased from Oncogene Research Products Inc.) or total KDR (purchased from Santa Cruz Inc.). Immunoreactive bands were visualised by chemiluminescence using horseradish peroxidase-conjugated anti-rabbit IgG and ECL reagent.

KDR [3] = target: T4, KDR (Homo sapiens, UniProt P35968); assay: 125I-VEGF165 binding to PAE/KDR cells; conditions: FIG. 2; cells expressing only KDR
T4 construct: expressed in transfected cells; host or cells: porcine aortic endothelial cells (PAE/KDR)
T4 sequence (P35968 20-1356, species assumed): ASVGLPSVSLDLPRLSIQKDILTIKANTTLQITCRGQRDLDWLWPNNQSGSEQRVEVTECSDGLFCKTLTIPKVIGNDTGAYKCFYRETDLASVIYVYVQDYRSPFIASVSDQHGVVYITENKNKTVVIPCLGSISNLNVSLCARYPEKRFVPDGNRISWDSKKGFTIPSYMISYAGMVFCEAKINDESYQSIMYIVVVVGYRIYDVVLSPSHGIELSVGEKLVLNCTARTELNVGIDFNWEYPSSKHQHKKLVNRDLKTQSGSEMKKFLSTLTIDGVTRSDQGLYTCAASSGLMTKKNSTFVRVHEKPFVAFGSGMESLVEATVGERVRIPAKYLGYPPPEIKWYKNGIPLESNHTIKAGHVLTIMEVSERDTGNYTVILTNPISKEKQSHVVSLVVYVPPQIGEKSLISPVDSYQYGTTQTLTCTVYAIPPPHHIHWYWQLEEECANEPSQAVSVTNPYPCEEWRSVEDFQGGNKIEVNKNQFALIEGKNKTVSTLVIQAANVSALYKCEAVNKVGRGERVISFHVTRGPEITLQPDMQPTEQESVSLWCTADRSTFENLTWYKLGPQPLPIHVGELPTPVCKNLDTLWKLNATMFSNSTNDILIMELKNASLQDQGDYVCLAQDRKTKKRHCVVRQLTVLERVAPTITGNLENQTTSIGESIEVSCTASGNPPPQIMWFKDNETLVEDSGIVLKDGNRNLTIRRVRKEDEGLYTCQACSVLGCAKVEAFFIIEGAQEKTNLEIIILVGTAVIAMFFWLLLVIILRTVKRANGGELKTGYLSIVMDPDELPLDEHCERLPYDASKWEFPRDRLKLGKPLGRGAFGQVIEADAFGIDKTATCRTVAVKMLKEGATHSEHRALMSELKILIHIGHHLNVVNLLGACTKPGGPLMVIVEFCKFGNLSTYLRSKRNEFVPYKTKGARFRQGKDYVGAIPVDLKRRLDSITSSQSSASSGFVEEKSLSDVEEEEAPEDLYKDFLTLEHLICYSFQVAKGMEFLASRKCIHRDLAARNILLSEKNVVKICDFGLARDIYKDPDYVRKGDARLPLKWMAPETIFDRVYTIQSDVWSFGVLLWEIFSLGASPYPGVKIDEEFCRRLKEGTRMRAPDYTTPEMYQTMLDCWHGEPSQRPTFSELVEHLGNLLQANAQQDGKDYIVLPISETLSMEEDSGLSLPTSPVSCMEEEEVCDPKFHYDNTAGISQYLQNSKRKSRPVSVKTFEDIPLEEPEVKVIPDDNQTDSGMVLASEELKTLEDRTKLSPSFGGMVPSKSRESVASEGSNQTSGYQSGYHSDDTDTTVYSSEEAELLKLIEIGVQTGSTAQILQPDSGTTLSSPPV

effect on 125I-VEGF165 binding to PAE/NP1 cells (Neuropilin-1 (NP-1); FIG. 1, peptide 100 μM, porcine aortic endothelial cells expressing only NP-1) | inhibition of 125I-VEGF165 binding to PAE/NP-1 cells (Neuropilin-1 (NP-1); FIG. 2) | effect on 125I-VEGF165 binding to PAE/Flt-1 cells (Flt-1) | binding of radiolabelled VEGF to breast carcinoma cell line MDA-MB-231 (NP-1) | effect on 125I-VEGF165 binding to PAE/KDR cells (KDR [3]) | Substance | inhibition of VEGF binding to HUVECs (HUVECs) | radiolabelled VEGF binding to HUVEC [1] | VEGF-induced KDR phosphorylation (KDR [2])
– | – | – | – | – | SEQ ID NO. 1: CSCKNTDSRCKARQLELNERTCRC, shortest active peptide of Soker et al; amino acids 22-44 of exon 7 and amino acid 1 of exon 8 (listed as Homo sapiens) | active | – | –
inhibition | specific, selective inhibition | no effect | inhibited | no effect | EG3287: bicyclic form of SEQ ID NO. 2, SCKNTDSRCKARQLELNERTCRCDKPRR, amino acids 138 to 165 within VEGF (not fully specified (N-terminus, C-terminus, bridges); also: bicyclic, two disulfides, pairing not given here; listed as Homo sapiens) | – | inhibited | inhibited
